Molecular target: the molecule itself
Assay: SEC-MALS

Protein | stoichiometry N
CynR (full length) (natural protein, Escherichia coli, UniProt P27111 1-299, looked up) MLSRHINYFLAVAEHGSFTRAASALHVSQPALSQQIRQLEESLGVPLFDRSGRTIRLTDAGEVWRQYASRALQELGAGKRAIHDVADLTRGSLRIAVTPTFTSYFIGPLMADFYARYPSITLQLQEMSQEKIEDMLCRDELDVGIAFAPVHSPELEAIPLLTESLALVVAQHHPLAVHEQVALSRLHDEKLVLLSAEFATREQIDHYCEKAGLHPQVVIEANSISAVLELIRRTSLSTLLPAAIATQHDGLKAISLAPPLLERTAVLLRRKNSWQTAAAKAFLHMALDKCAVVGGNESR | 4
cherry-core (CC) of CynR, effector binding domain (domain or fragment, Escherichia coli, UniProt P27111 59-299, looked up) DAGEVWRQYASRALQELGAGKRAIHDVADLTRGSLRIAVTPTFTSYFIGPLMADFYARYPSITLQLQEMSQEKIEDMLCRDELDVGIAFAPVHSPELEAIPLLTESLALVVAQHHPLAVHEQVALSRLHDEKLVLLSAEFATREQIDHYCEKAGLHPQVVIEANSISAVLELIRRTSLSTLLPAAIATQHDGLKAISLAPPLLERTAVLLRRKNSWQTAAAKAFLHMALDKCAVVGGNESR | 2
